{"source": "patent US20050238642A1", "about": "“Modified bouganin proteins, cytotoxins and methods and uses thereof” (priority 2004, published 2005)", "molecules": {"B1": {"name": "VB6-845-CL-de-bouganin: Fab anti-Ep-CAM de-bouganin construct, Bou156 linked at the C-terminus of the CL domain (protein)", "chain 1": "HHHHHHEVQLVQSGPGLVQPGGSVRISCAASGYTFTNYGMNWVKQAPGKGLEWMGWINTYTGESTYADSFKGRFTFSLDTSASAAYLQINSLRAEDTAVYYCARFAIKGDYWGQGTLLTVSSASTKGPSVFPLAPSSKSTSGGTAALGCLVKDYFPEPVTVSWNSGALTSGVHTFPAVLQSSGLYSLSSVVTVPSSSLGTQTYICNVNHKPSNTKVDKKVEPKSC", "chain 2": "DIQMTQSPSSLSASVGDRVTITCRSTKSLLHSNGITYLYWYQQKPGKAPKLLIYQMSNLASGVPSRFSSSGSGTDFTLTISSLQPEDFATYYCAQNLEIPRTFGQGTKVELKRTVAAPSVFIFPPSDEQLKSGTASVVCLLNNFYPREAKVQWKVDNALQSGNSQESVTEQDSKDSTYSLSSTLTLSKADYEKHKVYACEVTHQGLSSPVTKSFNRGECTRHRQPRGWEQLYNTVSFNLGEAYEYPTFIQDLRNELAKGTPVCQLPVTLQTIADDKRFVLVDITTTSKKTVKVAIDVTDVYVVGYQDKWDGKDRAVFLDKVPTVATSKLFPGVTNRVTLTFDGSYQKLVNAAKADRKALELGVNKLEFSIEAIHGKTINGQEAAKFFLIVIQMVSEAARFKYIETEVVDRGLYGSFKPNFKVLNLENNWGDISDAIHKSSPQCTTINPALQLISPSNDPWVVNKVSQISPDMGILKFKSSK"}}, "test_in_all_cases": "Flow cytometry reactivity test (Example 7)", "assay_type_in_all_cases": "binding", "key": {"CAL 27": {"system": "CAL 27", "settings": "Ep-CAM positive cell line CAL 27", "experimental": "(§1) The flow cytometry tests were conducted by incubating the constructs or control with 0.45×10^6 cells for an hour on ice. After washing, cell surface bound constructs were detected with a rabbit anti-bouganin (for FIG. 10A) or mouse anti-His tag (FIG. 10B) for an hour on ice. The cells were washed and incubated with FITC-conjugated sheep anti-rabbit IgG (FIG. 10A) and FITC-conjugated sheep anti-mouse (IgG) (FIG. 10B) for 30 minutes on ice. Subsequently the cells were washed, resuspended in PBS 5% FCS containing propidium iodide for assessment of antibody binding by flow cytometry."}, "A-375": {"system": "A-375", "settings": "Ep-CAM-negative cell line A-375", "experimental": "as §1"}, "NIH:OVCAR-3": {"system": "NIH:OVCAR-3", "settings": "Ep-CAM positive cell line NIH:OVCAR-3", "experimental": "as §1"}}, "data": [{"molecule": "B1", "values": [{"measurement": "shift in median fluorescence", "setting": "CAL 27", "value": "marked shift in median fluorescence"}, {"measurement": "shift in median fluorescence", "setting": "A-375", "value": "No shift in median fluorescence"}, {"measurement": "shift in median fluorescence", "setting": "NIH:OVCAR-3", "value": "marked shift in median fluorescence"}]}]}
